For experiment [1], the target named is Fc-Fusion Protein (human soluble TNFα receptor linked to the Fc component of human immunoglobulin G1) (human) [IgG part: P01857]. Kind of experiment: frontal analysis with CHO supernatant feed, fractions analysed on HiTrap MabSelect SuRe, residence time 2.4 min.
The target is the same in experiment [2]. Description: frontal analysis with CHO supernatant feed, Z4 medium of low ligand density, residence time 6 min.
The target is the same in experiment [3]. Description: frontal analysis with CHO supernatant feed, Z4 medium of low ligand density, residence time 2.4 min.
Experiment [4] has the same target. Description: frontal analysis with CHO supernatant feed, fractions analysed on HiTrap MabSelect SuRe, residence time 6 min.

Take “Z4, tetramer of alkaline stabilized protein A (SuRe ligand domain / Z domain), MabSelect SuRe (designed binder)”: the DBC10% (dynamic binding capacity at 10% breakthrough) in experiment [1] came to 6 mg/mL; in experiment [2] it was 9 mg/mL; in experiment [3] it was 5 mg/mL; in experiment [4], 10 mg/mL.
